Columns and labels:
Conditions in all cases: both partners purified
[1] = molecular target: recombinant SARS-CoV-2 RBD, prototype (BLI) (SARS-CoV-2, prototype (Wuhan-Hu-1), UniProt P0DTC2); experiment: BLI
[2] = molecular target: T1, SARS-CoV-2 RBD (prototype), construct made for crystallography (SARS-CoV-2, prototype (Wuhan-Hu-1)); experiment: crystal structure
T1 construct: also called prototype SARS-CoV-2 RBD; SARS-CoV-2 RBD (319-537)

[3] = molecular target: SARS-CoV-2 RBD, prototype (SARS-CoV-2, prototype (Wuhan-Hu-1), UniProt P0DTC2); experiment: BLI

Binder	Kd [1] [nM]	koff [1] [s⁻¹]	binding result [2]	kon [3] [M⁻¹ s⁻¹]
NIH-CoVnb-112 (VHH) VHH: DVQLQESGGGLVQPGGSLRLSCAASGLTLDYYAIGWFRQAPGKEREGVSCISSSDGSTYYADSVKGRFTTSRDNAKNTVYLQMNSLKPEDTAVYYCAAVPSTYYSGTYYYTCHPGGMDYWGKGTQVTVSS [NIH-CoVnb-112, listing 1 of 2 here]	1.59	0.000236	binds	–
NIH-CoVnb-112 (VHH) VHH: DVQLQESGGGLVQPGGSLRLSCAASGLTLDYYAIGWFRQAPGKEREGVSCISSSDGSTYYADSVKGRFTTSRDNAKNTVYLQMNSLKPEDTAVYYCAAVPSTYYSGTYYYTCHPGGMDYWGKGTQVTVSS [NIH-CoVnb-112, listing 2 of 2 here]	–	–	–	223000

Reference: article PMC8928829 (mAbs, 2022)
